{"source": "patent US20240400652A1", "biological_target": "SARS-CoV-2 spike with Y453F (SARS-CoV-2) (UniProt P0DTC2)", "assay": "cell-based or functional assay", "data": [{"substance": "REGN10987 (antibody)", "values": [{"measurement": "decrease in neutralization, live virus or pseudovirus (fold decrease)", "result": 4}]}]}
